Measured values: the domain aggregation screens of Martell et al. (2025)

Assay: soluble fraction after stress (log2 fold change); higher = more stays soluble; pooled small domains, quantitative proteomics
Conditions: stress: 75 degC
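Note: 20 min heating vs room temperature control held 20 min.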

Sequence | soluble fraction (log2)
HMEDKKQVLYELITDKSYRPLRFKELAVLLMVPKALRGELKQTLDELIKEGKITVDSSSRYRAA | 0.599
HMEDLDKIISAYLDENPQIVSDYGKGNKKAVNSAIGFVMKSTGGKYSSSDIVDAVRSMIVSISV | -0.667
HMEDNYYENKINYLFGYLDEADKEISVNSILDFHLAHRTNPEFVFEPKKNTNPLIWKYLSNSNLLY | 0.398
HMEDPLGDLIGRIAAATGRPVQDIVAEVHRVVTDHFDGNLRVEAAAVILARKYGVAFEDKLSALQRSV | 0.0325
HMEDSAKRHQIMDGARRVFMDLGFDGASMNEIARAAGVSKGTLYVYFTDKNRLFEAIVEQESL | -1.27
HMEDSEYDRLLAEIDEGIRKAIETLEPVELSPQNARVRRIQHQIIEKYQLHSDSVGEEPYRRVRIL | -0.596
HMEDSHIYPVSFNGKMRFKLELPVSMNKKEIEEVVLQHEDAQKWLNGQNPKKVIVVPKRIINIV | 0.0193
HMEDTVNVPIQINGKLRHVIQVQIGTSEEEIQKIALSEEQVKKFTDGHEILKVMVPKGKLVSIVI | -1.04
HMEDVLVTQIIQLKHVDANDMKTLFTPLLSRGSSQLLAYPQSNVLIITDTRSNIKKITEILDIIDKS | -3.02
HMEDVRSLTGPEKAAIILLSLGEEHGQGVWRMFDDEEVKEVSQIMANLGTISASVVEKLLVEFVSQMST | -0.96
HMEDYYKILGVQSNSNPDDIKKAYRKLSLKHHPDRGGDASEFKKINEAYQTLGTPEKRKMYDMQQNN | -0.169
HMEEEPALLRDLLAKTLEFGLIPQLSHHPALADRTQQLASAVRAAGSASALRNAAASLKSLWIDVDQ | -0.0158
HMEEFDLNAYITKINSAATLNALKQAYAEANSAALSVKDKDAQRKIIVEKDKRKAELIQETAG | 0.453
HMEEIALTDILNRFLSSLSLEQRKIFMRRYWYLSPIKEIATEYGMSESKIKMSLFRSRNELKKLLEKEGI | -0.499
HMEEINTAPVFKNIIEIAEYAKTKFTTVEEIPKMIEFIETANSKLDNPHDEESVNELINALSTNIRKNV | 0.347
HMEEITLIAEDEGLRLDTWLTDKLKDYSRSYIQKLMEDELVLVNGKARKANYRIKTGDEIHVSIPEPE | -0.0663
HMEELLVAVKADGSIWADGRPITPDGLASFIDSKPADAVLNLAVDKKAPFAAFVKVVDVAKEKKSGRFVIR | -0.41
HMEELPIIVAQRFLNIFRQLHIFSDERREAFNKMLLELPPEVKSIFQSLPGGTPLQEYMEDLEQKSK | -0.721
HMEELTPLQKYVFDYESDISDEVDMRAIKGLENANDVYDYYANVRGWEGDPDLEDDLDNIYRQVKARFA | 0.0255
HMEEMTIRQKRTMIFFIEATKHILQEDGYDHLTIREIAQRAGYNAATLYHYFRDLDELIIYGSVG | -0.439
HMEEPEELYRVKILIYNLLVRNGPGILYTRLRRADYPGEYGIYEEKNGYGKISATLSEWISLNTEYVQRLD | -3.72
HMEEVYVPDIRDKSISDAKKILSQMGLKYRIEGEGYDDSTVIKDQTPKPGALLAKDSVVIAYINE | 0.0833
HMEEYLENLTQSKLLHMLDQLSPAYKTVFTLFVLDELSHEEISKMLNISIGTSKSNLFRARKVMRVLMESE | -0.273
HMEFDIDAAIHAALEPQAVMRAWFGHEGREYPEDFGVVFFRGWESFTHQEKVEAVRDAKKVLDRAVR | -1.18
HMEFDSLINYEVKKKETLFSISKKFKIEINDLLSFNTELKNNKLKKNSIIIIPLKKKIVESQNFEKQKIID | -1.49
HMEFENIEQRKQYWSDLYRELKAGQDAYAKELKKGTEGYTQDELDILKEFTDEAKKQMEAAGVEATDEFAS | -0.0427
HMEFLLAIQPFVLLTDHANLTFLREQTDSMMKRIQINISGFEIEFRYVPGLTNILPDKMSRV | 0.146
HMEFQEQLYRLRKQAGLSQEELSHIIGVSRQAVQKWEAGSARPDLDNLIALASHFKLSLDQLVGLT | -1.01
